The results in this text go back to US20040110930A1.

For assay [1], the target named is 38C13 scFv protein. Nature of the assay: ELISA, coated 38C13 scFv 5 ug/ml; 50.000 ng Fab; background subtracted.
The target of assay [2] is 38C13 scFv protein. Nature of the assay: ELISA, coated 38C13 scFv 5 ug/ml; 12.500 ng Fab; background subtracted. On the technique in general: ELISA stands for enzyme-linked immunosorbent assay.
In assay [3] the target is 38C13 scFv protein. Nature of the assay: ELISA, coated 38C13 scFv 5 ug/ml; 3.125 ng Fab; background subtracted.
The target in assay [4] is 38C13 scFv protein. Nature of the assay: ELISA, coated 38C13 scFv 5 ug/ml; 0.781 ng Fab; background subtracted.
The target in assay [5] is 38C13 scFv protein. The assay is described as follows: ELISA, coated 38C13 scFv 5 ug/ml; 0.049 ng Fab; background subtracted.
The target in assay [6] is 38C13 scFv protein. Nature of the assay: ELISA, coated 38C13 scFv 5 ug/ml; 6.250 ng Fab; background subtracted.
For assay [7], the target named is 38C13 scFv protein. The assay is described as follows: ELISA, coated 38C13 scFv 5 ug/ml; 25.000 ng Fab; background subtracted.
Assay [8] has as its target 38C13 scFv protein. The assay is described as follows: ELISA, coated 38C13 scFv 5 ug/ml; 0.098 ng Fab; background subtracted.
For assay [9], the target named is 38C13 scFv protein. Nature of the assay: ELISA, coated 38C13 scFv 5 ug/ml; 0.195 ng Fab; background subtracted.
Assay [10] concerns the target 38C13 scFv protein. The assay is described as follows: ELISA, coated 38C13 scFv 5 ug/ml; 0.391 ng Fab; background subtracted.
The target of assay [11] is 38C13 scFv protein. The assay is described as follows: ELISA, coated 38C13 scFv 5 ug/ml; 1.563 ng Fab; background subtracted.
Assay [12] concerns the target 38C13 scFv protein. The assay is described as follows: ELISA, coated 38C13 scFv 5 ug/ml; 0.293 ng MAb; background subtracted.
For assay [13], the target named is 38C13 scFv protein. The assay is described as follows: ELISA, coated 38C13 scFv 5 ug/ml; 150.000 ng MAb; background subtracted.
Assay [14] concerns the target 38C13 scFv protein. Nature of the assay: ELISA, coated 38C13 scFv 5 ug/ml; 1.172 ng MAb; background subtracted.
The target in assay [15] is 38C13 scFv protein. Nature of the assay: ELISA, coated 38C13 scFv 5 ug/ml; 0.146 ng MAb; background subtracted.
Assay [16] concerns the target 38C13 scFv protein. The assay is described as follows: ELISA, coated 38C13 scFv 5 ug/ml; 9.375 ng MAb; background subtracted.
For assay [17], the target named is 38C13 scFv protein. Nature of the assay: ELISA, coated 38C13 scFv 5 ug/ml; 0.586 ng MAb; background subtracted.
In assay [18] the target is 38C13 scFv protein. The assay is described as follows: ELISA, coated 38C13 scFv 5 ug/ml; 2.344 ng MAb; background subtracted.
Assay [19] concerns the target 38C13 scFv protein. The assay is described as follows: ELISA, coated 38C13 scFv 5 ug/ml; 75.000 ng MAb; background subtracted.
The target in assay [20] is 38C13 scFv protein. Nature of the assay: ELISA, coated 38C13 scFv 5 ug/ml; 4.688 ng MAb; background subtracted.
Assay [21] deals with 38C13 scFv protein. Nature of the assay: ELISA, coated 38C13 scFv 5 ug/ml; 37.500 ng MAb; background subtracted.
The target in assay [22] is 38C13 scFv protein. The assay is described as follows: ELISA, coated 38C13 scFv 5 ug/ml; 18.750 ng MAb; background subtracted.

Where “and” joins values, the source holds several entries; their conditions need not be identical. Equal entries are not always repeated.

B1: control S1C5 Fab produced from mouse ascites MAb using the ImmunoPure Fab Kit (Fab, V domains shown)
VH: EVKLEQSGAELVKPGASVKISCKASGYTFTDHVIHWVKQRPEQGLEWIGFISPGNGDIRYNEKFKDKATLTADKSSSTAYMQLNSLTSEDSAVYFCKRSFYYYDDNYGDYWGQGTTLTVSS
VL: QIVLTQSPAIMSASLGERVTMTCTASSSVSSSYFHWYQQKPGSSPKLWIYTTSNLASGVPARFSGSGSGTSYSLTISSMEAEDAATYYCHQYHRSPLTFGAGTKLELKR
For B1, the A450 in the assay with 38C13 scFv protein [1] was 0.481 A450 and 0.516 A450; in the assay with 38C13 scFv protein [2] it was 0.46 A450 and 0.465 A450; with 38C13 scFv protein [3], 0.273 A450 and 0.266 A450; with 38C13 scFv protein [4] it was 0.095 A450 and 0.094 A450; in the assay with 38C13 scFv protein [5], 0.008 A450 and 0.003 A450; in the assay with 38C13 scFv protein [6], 0.346 A450 and 0.363 A450. Further, the A450 is 0.498 A450 and 0.51 A450 in the assay with 38C13 scFv protein [7]; 0.009 A450 and 0.018 A450 in the assay with 38C13 scFv protein [8]; 0.03 A450 and 0.023 A450 with 38C13 scFv protein [9]; 0.047 A450 and 0.05 A450 with 38C13 scFv protein [10]; 0.168 A450 and 0.171 A450 with 38C13 scFv protein [11].

B2: pLSBC1798 produced S1C5 MAb (antibody, V domains shown)
VH: EVKLEQSGAELVKPGASVKISCKASGYTFTDHVIHWVKQRPEQGLEWIGFISPGNGDIRYNEKFKDKATLTADKSSSTAYMQLNSLTSEDSAVYFCKRSFYYYDDNYGDYWGQGTTLTVSS
VL: QIVLTQSPAIMSASLGERVTMTCTASSSVSSSYFHWYQQKPGSSPKLWIYTTSNLASGVPARFSGSGSGTSYSLTISSMEAEDAATYYCHQYHRSPLTFGAGTKLELKR
Turning to B2, the A450 in the assay with 38C13 scFv protein [12] was 0.014 A450 and 0.015 A450; with 38C13 scFv protein [13], 0.521 A450 and 0.52 A450; with 38C13 scFv protein [14] it was 0.061 A450; with 38C13 scFv protein [15], 0.007 A450 and 0.004 A450; in the assay with 38C13 scFv protein [16] it was 0.295 A450 and 0.307 A450; in the assay with 38C13 scFv protein [17], 0.03 A450 and 0.029 A450. Further, the A450 with 38C13 scFv protein [18] is 0.106 A450 and 0.113 A450; with 38C13 scFv protein [19] it was 0.514 A450 and 0.517 A450; with 38C13 scFv protein [20], 0.198 A450 and 0.194 A450; in the assay with 38C13 scFv protein [21] it was 0.477 A450 and 0.482 A450; with 38C13 scFv protein [22], 0.39 A450 and 0.397 A450.

B3: Control S1C5 MAb from mouse ascites fluid (antibody, V domains shown)
VH: EVKLEQSGAELVKPGASVKISCKASGYTFTDHVIHWVKQRPEQGLEWIGFISPGNGDIRYNEKFKDKATLTADKSSSTAYMQLNSLTSEDSAVYFCKRSFYYYDDNYGDYWGQGTTLTVSS
VL: QIVLTQSPAIMSASLGERVTMTCTASSSVSSSYFHWYQQKPGSSPKLWIYTTSNLASGVPARFSGSGSGTSYSLTISSMEAEDAATYYCHQYHRSPLTFGAGTKLELKR
As for B3, the A450 is 0.025 A450 and 0.023 A450 with 38C13 scFv protein [12]; 0.517 A450 and 0.538 A450 with 38C13 scFv protein [13]; 0.105 A450 and 0.096 A450 in the assay with 38C13 scFv protein [14]; 0.012 A450 and 0.01 A450 in the assay with 38C13 scFv protein [15]; 0.39 A450 and 0.395 A450 in the assay with 38C13 scFv protein [16]; 0.053 A450 and 0.047 A450 with 38C13 scFv protein [17]. The A450 was 0.18 A450 and 0.179 A450 in the assay with 38C13 scFv protein [18]; 0.532 A450 and 0.515 A450 with 38C13 scFv protein [19]; 0.283 A450 and 0.284 A450 with 38C13 scFv protein [20]; 0.443 A450 and 0.497 A450 in the assay with 38C13 scFv protein [21]; 0.476 A450 and 0.429 A450 in the assay with 38C13 scFv protein [22].

B4: pLSBC1792 produced S1C5 Fab (Fab, V domains shown)
VH: EVKLEQSGAELVKPGASVKISCKASGYTFTDHVIHWVKQRPEQGLEWIGFISPGNGDIRYNEKFKDKATLTADKSSSTAYMQLNSLTSEDSAVYFCKRSFYYYDDNYGDYWGQGTTLTVSS
VL: QIVLTQSPAIMSASLGERVTMTCTASSSVSSSYFHWYQQKPGSSPKLWIYTTSNLASGVPARFSGSGSGTSYSLTISSMEAEDAATYYCHQYHRSPLTFGAGTKLELKR
In the case of B4, the A450 with 38C13 scFv protein [1] was 0.524 A450 and 0.504 A450; with 38C13 scFv protein [2] it was 0.487 A450 and 0.485 A450; with 38C13 scFv protein [3] it was 0.366 A450 and 0.35 A450; in the assay with 38C13 scFv protein [4], 0.168 A450 and 0.154 A450; with 38C13 scFv protein [5] it was 0.01 A450 and 0.011 A450; in the assay with 38C13 scFv protein [6], 0.468 A450 and 0.449 A450. For the same molecule, the A450 with 38C13 scFv protein [7] was 0.521 A450 and 0.519 A450; with 38C13 scFv protein [8] it was 0.025 A450 and 0.019 A450; in the assay with 38C13 scFv protein [9] it was 0.049 A450 and 0.041 A450; with 38C13 scFv protein [10], 0.09 A450 and 0.094 A450; with 38C13 scFv protein [11], 0.263 A450 and 0.247 A450.
